Measured values published in paper doi:10.1101/2024.07.14.603434 (bioRxiv, 2024).

Biological target: the molecule itself
Assay: SEC

B1: NagS (SCO4393), N-acetylglucosamine-6-phosphate dehydratase (enzyme, Streptomyces coelicolor, UniProt Q9K3V1 1-251, looked up)
chain: MSDHKPAGQFLDAAIDLLRRVRDEEADSIEAAGTLLADTVQNGGRLFAFGAGHSSLAAQDVVYRAGGLALMNLLTVPGVVGIDVMPATLGSALERVDGLASAVLDSSPLRAGDALVIISLSGRNALPVEMAMHARALGLRVIGVTSVAYASQTTSRHASGTFLKDHCDIVLDSKIAVGDAELTLDTVPAPFAPASTVVTAALMQAVTATAAATLADRGIEPPLLRSGNVDGGHEWNARVLEQYGERIFYRR
- stoichiometry N: 2
